Results: patent US20090022738A1 (MICROMET, published 2009)

T1: Epithelial cell adhesion molecule (EpCAM) (human, UniProt P16422 24-314)
T1 construct: whole, on cells; also called 17-1A antigen; KSA
T1 sequence (looked up): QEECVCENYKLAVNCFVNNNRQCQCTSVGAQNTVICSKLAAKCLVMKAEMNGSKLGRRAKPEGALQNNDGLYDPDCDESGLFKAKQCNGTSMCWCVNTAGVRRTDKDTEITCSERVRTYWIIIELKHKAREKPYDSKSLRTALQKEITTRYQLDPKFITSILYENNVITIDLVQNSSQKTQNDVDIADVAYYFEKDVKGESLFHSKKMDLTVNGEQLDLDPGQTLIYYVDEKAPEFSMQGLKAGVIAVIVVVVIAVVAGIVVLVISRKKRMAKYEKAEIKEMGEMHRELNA

T2: CD19 (human, UniProt P15391 20-556)
T2 construct: whole, on cells; also called CD19 on NALM-6 cells
T2 sequence (looked up): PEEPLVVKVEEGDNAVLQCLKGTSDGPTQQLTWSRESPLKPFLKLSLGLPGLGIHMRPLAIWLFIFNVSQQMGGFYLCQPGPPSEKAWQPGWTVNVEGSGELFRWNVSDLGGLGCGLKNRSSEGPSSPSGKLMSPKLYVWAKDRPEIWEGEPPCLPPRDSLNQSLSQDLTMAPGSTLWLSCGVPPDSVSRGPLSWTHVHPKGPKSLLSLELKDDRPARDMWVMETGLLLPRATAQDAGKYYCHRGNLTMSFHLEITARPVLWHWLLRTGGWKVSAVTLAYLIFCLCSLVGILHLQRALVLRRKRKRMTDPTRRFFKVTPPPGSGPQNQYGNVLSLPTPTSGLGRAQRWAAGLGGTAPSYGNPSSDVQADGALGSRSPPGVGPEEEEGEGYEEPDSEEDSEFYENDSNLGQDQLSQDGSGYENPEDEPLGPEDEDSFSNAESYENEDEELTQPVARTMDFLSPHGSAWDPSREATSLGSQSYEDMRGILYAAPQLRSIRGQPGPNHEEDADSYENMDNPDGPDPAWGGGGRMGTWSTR

B1: deimmunized anti-CD3 (VH5/VL2)×5-10 (SEQ ID NO.:37) (bispecific antibody)
chain: DVQLVQSGAEVKKPGASVKVSCKASGYTFTRYTMHWVRQAPGQGLEWIGYINPSRGYTNYADSVKGRFTITTDKSTSTAYMELSSLRSEDTATYYCARYYDDHYCLDYWGQGTTVTVSSGEGTSTGSGGSGGSGGADDIVLTQSPATLSLSPGERATLSCRASQSVSYMNWYQQKPGKAPKRWIYDTSKVASGVPARFSGSGSGTDYSLTINSLEAEDAATYYCQQWSSNPLTFGGGTKVEIKSGGGGSEVQLLEQSGAELVRPGTSVKISCKASGYAFTNYWLGWVKQRPGHGLEWIGDIFPGSGNIHYNEKFKGKATLTADKSSSTAYMQLSSLTFEDSAVYFCARLRNWDEPMDYWGQGTTVTVSSGGGGSGGGGSGGGGSELVMTQSPSSLTVTAGEKVTMSCKSSQSLLNSGNQKNYLTWYQQKPGQPPKLLIYWASTRESGVPDRFTGSGSGTDFTLTISSVQAEDLAVYYCQNDYSYPLTFGAGTKLEIK
notes: Bispecific single chain, VH(CD3)-VL(CD3)-VH(EpCAM)-VL(EpCAM); expressed in CHO with a leader peptide; detected by anti-His
B2: deimmunized anti-CD3 (VH5/VL2)×4-7 (VL-VH) (SEQ ID NO.:35) (bispecific antibody)
chain: DVQLVQSGAEVKKPGASVKVSCKASGYTFTRYTMHWVRQAPGQGLEWIGYINPSRGYTNYADSVKGRFTITTDKSTSTAYMELSSLRSEDTATYYCARYYDDHYCLDYWGQGTTVTVSSGEGTSTGSGGSGGSGGADDIVLTQSPATLSLSPGERATLSCRASQSVSYMNWYQQKPGKAPKRWIYDTSKVASGVPARFSGSGSGTDYSLTINSLEAEDAATYYCQQWSSNPLTFGGGTKVEIKSGGGGSELVMTQTPLSLPVSLGDQASISCRSSQSLVHSNGNTYLHWYLQKPGQSPKLLIYKVSNRFSGVPDRFSGSGSGTDFTLKISRVEAEDLGVYFCSQSTHVPYTFGGGTKLEIKGGGGSGGGGSGGGGSEVQLLEQSGAELARPGASVKLSCKASGYTFTNYGLSWVKQRPGQVLEWIGEVYPRIGNAYYNEKFKGKATLTADKSSSTASMELRSLTSEDSAVYFCARRGSYDTNYDWYFDVWGQGTTVTVSS
notes: Bispecific single chain, VH(CD3)-VL(CD3)-VL(EpCAM)-VH(EpCAM); detected by anti-His; also called anti-CD3 (VH5/VL2)x4-7 (VL-VH)
B3: deimmunized anti-CD3 (VH5/VL2)×4-7 (SEQ ID NO.:33) (bispecific antibody)
chain: DVQLVQSGAEVKKPGASVKVSCKASGYTFTRYTMHWVRQAPGQGLEWIGYINPSRGYTNYADSVKGRFTITTDKSTSTAYMELSSLRSEDTATYYCARYYDDHYCLDYWGQGTTVTVSSGEGTSTGSGGSGGSGGADDIVLTQSPATLSLSPGERATLSCRASQSVSYMNWYQQKPGKAPKRWIYDTSKVASGVPARFSGSGSGTDYSLTINSLEAEDAATYYCQQWSSNPLTFGGGTKVEIKSGGGGSEVQLLEQSGAELARPGASVKLSCKASGYTFTNYGLSWVKQRPGQVLEWIGEVYPRIGNAYYNEKFKGKATLTADKSSSTASMELRSLTSEDSAVYFCARRGSYDTNYDWYFDVWGQGTTVTVSSGGGGSGGGGSGGGGSELVMTQTPLSLPVSLGDQASISCRSSQSLVHSNGNTYLHWYLQKPGQSPKLLIYKVSNRFSGVPDRFSGSGSGTDFTLKISRVEAEDLGVYFCSQSTHVPYTFGGGTKLEIK
notes: Bispecific single chain, VH(CD3)-VL(CD3)-VH(EpCAM)-VL(EpCAM); detected by anti-His; also called anti-CD3 (VH5/VL2)x4-7
B4: deimmunized anti-CD3 (VH5/VL2)×3-1 (SEQ ID NO.:31) (bispecific antibody)
chain: DVQLVQSGAEVKKPGASVKVSCKASGYTFTRYTMHWVRQAPGQGLEWIGYINPSRGYTNYADSVKGRFTITTDKSTSTAYMELSSLRSEDTATYYCARYYDDHYCLDYWGQGTTVTVSSGEGTSTGSGGSGGSGGADDIVLTQSPATLSLSPGERATLSCRASQSVSYMNWYQQKPGKAPKRWIYDTSKVASGVPARFSGSGSGTDYSLTINSLEAEDAATYYCQQWSSNPLTFGGGTKVEIKSGGGGSEVQLLEQSGAELVKPGASVKISCKASGYAFTNYWLGWVKQRPGHGLEWIGDLFPGSGNTHYNERFRGKATLTADKSSSTAFMQLSSLTSEDSAVYFCARLRNWDEAMDYWGQGTTVTVSSGGGGSGGGGSGGGGSELVMTQSPSYLAASPGETITINCRASKSISKYLAWYQEKPGKTNKLLIYSGSTLQSGIPSRFSGSGSGTDFTLTISSLEPEDFAMYYCQQHNEYPYTFGGGTKLEIK
notes: Bispecific single chain, VH(CD3)-VL(CD3)-VH(EpCAM)-VL(EpCAM); detected by anti-His
B5: anti-CD19×anti-CD3 (VH3/VL1) (SEQ ID NO.:184) (bispecific antibody)
chain: DIQLTQSPASLAVSLGQRATISCKASQSVDYDGDSYLNWYQQIPGQPPKLLIYDASNLVSGIPPRFSGSGSGTDFTLNIHPVEKVDAATYHCQQSTEDPWTFGGGTKLEIKGGGGSGGGGSGGGGSQVQLQQSGAELVRPGSSVKISCKASGYAFSSYWMNWVKQRPGQGLEWIGQIWPGDGDTNYNGKFKGKATLTADESSSTAYMQLSSLASEDSAVYFCARRETTTVGRYYYAMDYWGQGTTVTVSSGGGGSDVQLVQSGAEVKKPGASVKVSCKASGYTATRYTMHWVRQAPGQGLEWIGYINPSRGYTNYAQKLQGRVTMTTDTSTSTAYLQMNSLKTEDTAVYYCARYYDDHYCLDYWGQGTTVTVSSGEGTSTGSGGSGGSGGADDIQMTQSPSSLSASVGDRVTITCRASQSVSYMNWYQQKPGKAPKRWIYDTSKVASGVPARFSGSGSGTDYSLTINSLEAEDAATYYCQQWSSNPLTFGGGTKVEIK
notes: As m4: bispecific single chain, His-tagged; also called pEF anti-CD19×anti-CD3 (VH3/VL1)
B6: anti-CD19×anti-CD3 (VH2/VL2) (SEQ ID NO.:180) (bispecific antibody)
chain: DIQLTQSPASLAVSLGQRATISCKASQSVDYDGDSYLNWYQQIPGQPPKLLIYDASNLVSGIPPRFSGSGSGTDFTLNIHPVEKVDAATYHCQQSTEDPWTFGGGTKLEIKGGGGSGGGGSGGGGSQVQLQQSGAELVRPGSSVKISCKASGYAFSSYWMNWVKQRPGQGLEWIGQIWPGDGDTNYNGKFKGKATLTADESSSTAYMQLSSLASEDSAVYFCARRETTTVGRYYYAMDYWGQGTTVTVSSGGGGSDVQLVQSGAEVKKPGASVKVSCKASGYTATRYTMHWVRQAPGQGLEWIGYINPSRGYTNYAQKLQGRVTMTTDTSTSTAYMELSSLRSEDTATYYCARYYDDHYCLDYWGQGTTVTVSSGEGTSTGSGGSGGSGGADDIVLTQSPATLSLSPGERATLSCRASQSVSYMNWYQQKPGKAPKRWIYDTSKVASGVPARFSGSGSGTDYSLTINSLEAEDAATYYCQQWSSNPLTFGGGTKVEIK
notes: As m4: bispecific single chain, His-tagged; also called pEF anti-CD19×anti-CD3 (VH2/VL2)

The binders below were run against T3, human CD3 (human, UniProt P07766 23-207; P04234 22-171; P09693 23-182) (assay: FACS, 10 µg/ml on Jurkat cells).
T3 construct: whole, on cells; also called CD3 antigen; human CD3 complex
Description: (§1) Binding of the bispecific single chain molecules with anti-CD3 part in N-terminal orientation to EpCAM and CD3 were confirmed by FACS analyses. For that purpose the EpCAM positive human gastric cancer cell line Kato III (ATCC HTB-103) was used.
(§2) Cells were cultured according to the recommendations of the supplier and a number of 200000 cells was incubated with 10 μg/ml of the construct in 50 μl PBS with 2% FCS (fetal calf serum). The binding of the construct was detected with an anti-His antibody (Penta-His Antibody, obtained from Qiagen, Hilden, FRG) at 2 μg/ml in PBS with 2% FCS. […] The samples were measured on a FACSscan (BD biosciences, Heidelberg, FRG).
B1: binds. B2: binds. B3: binds. B4: binds.

Each binder was assayed against T3, human CD3 (assay: FACS on CD3-enriched PBMCs).
B5: no binding (tested: non-diluted supernatant). B6: no binding (tested: non-diluted supernatant).

These binders were tested against T1, Epithelial cell adhesion molecule … (assay: FACS, 10 µg/ml on EpCAM positive Kato III cells).
Description: as §1, §2
B1: binds. B2: binds. B3: binds. B4: binds.

What follows are binders tested against T3, human CD3 (assay: FACS, second experiment, crude supernatant on CD3-enriched PBMCs).
Description: (§3) In order to analyze the binding efficacy of the deimmunized constructs to CD3 and CD19 a FACS-based assay was performed. Initially, crude supernatants were tested for binding on CD3-enriched PBMCs or CD19-positive NALM-6 cells. Cells were incubated with non-diluted supernatants for 30 minutes at 8° C. Upon two wash steps the cells were labeled with an anti-His antibody (Qiagen) under the same conditions. After additional wash steps binding of the constructs was detected with a FITC-conjugated sheep anti-mouse antibody (Sigma). Cells were analyzed with a FACS Calibur cytometer (B&D). As controls supernatants of anti-CD19×anti-CD3 and GFP-transfected cells were included. […] The positive control, which was a non-deimmunized anti-CD19×anti-CD3 construct reached a MFI of around 60 showing that the deimmunized constructs comprising anti-CD3 (VH5/VL1) (SEQ ID NO.:190), anti-CD3 (VH5/VL2) (SEQ ID NO.:192), anti-CD3 (VH5/VL3) (SEQ ID NO.:194), anti-CD3 (VH7/VL1) (SEQ ID NO.:196), anti-CD3 (VH7/VL2) (SEQ ID NO.:198) and anti-CD3 (VH7/VL3) (SEQ ID NO.:200) bound CD3 with extremely high efficacy.
B5 showed an MFI of about 6 MFI. B6 showed an MFI of about 6 MFI.

What follows are binders tested against T2, CD19 (assay: FACS, crude supernatant on CD19-positive NALM-6 cells; negative control MFI ca. 3).
Description: as §3
The FACS-based binding assay was also carried out for CD19. In this experiment CD19 and a secondary antibody was as a negative control. In this experiment, all assayed constructs achieved a MFI of at least 80 while the MFI of the negative control was ca. 3.
B5 showed an MFI of at least 80 MFI. Binder B6 has an MFI of at least 80 MFI.
